In assay [1] the target is human C1s (human).
The target of assay [2] is human C1s (human). This is another data set of the same source.

The source of these data is PMC8621594.

recombinant human C1 esterase inhibitor (rhC1INH) from Chinese hamster ovary (CHO) cells, sequence (P05155 23-500): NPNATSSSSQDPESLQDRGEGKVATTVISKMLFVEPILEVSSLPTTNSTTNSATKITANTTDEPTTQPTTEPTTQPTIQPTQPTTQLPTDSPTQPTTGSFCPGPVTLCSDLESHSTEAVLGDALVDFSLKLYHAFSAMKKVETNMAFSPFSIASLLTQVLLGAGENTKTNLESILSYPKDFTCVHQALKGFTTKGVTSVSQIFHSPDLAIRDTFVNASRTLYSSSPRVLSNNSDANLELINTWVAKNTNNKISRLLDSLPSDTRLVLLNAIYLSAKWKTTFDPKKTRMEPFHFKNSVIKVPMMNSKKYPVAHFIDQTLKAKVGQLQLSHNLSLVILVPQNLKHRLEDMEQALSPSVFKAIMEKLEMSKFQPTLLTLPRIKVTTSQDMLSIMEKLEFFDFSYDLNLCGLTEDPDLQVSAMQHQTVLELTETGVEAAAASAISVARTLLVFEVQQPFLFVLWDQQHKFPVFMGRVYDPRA

In the assay with human C1s (human) [1], “recombinant human C1 esterase inhibitor (rhC1INH) from Chinese hamster ovary (CHO) cells (from UniProt P05155 23-500) (natural protein)” displayed a Biological Activity, U/mL: inhibition of the C1s subunit, chromogenic method (TECHNOCHROM C1-INH Kit) of 175 U/mL and a Specific Activity, U/mg: inhibition of the C1s subunit, chromogenic method (TECHNOCHROM C1-INH Kit) of 9.5 U/mg. The substance also displayed an IC50 of the inhibition of human serum complement (lysis of chicken erythrocytes), rhC1INH 0.0099 to 20.25 IU/mL; printed as activity against human C1-esterase in the blood serum with human C1s (human) [2] of 1.85 IU/mL.
